From patent US12698495B2, “Engineered tryptophan decarboxylases and uses thereof for synthesizing tryptamine analogs” (priority 2022, dated 2026)
Substitutions are numbered along the chain they refer to. Names may count otherwise.

How the values were obtained:
[1] = tested on: serotonin receptor; settings: known from literature (ref. 43); cited from earlier work
[2] = cited from earlier work
[3] = PfTrpB variant activity and promiscuity; assay type: biochemical, Pyrococcus furiosus

## CCOc1ccc2[nH]cc(CCN)c2c1 [5-OEt-tryptamine]
[1]
  serotonin receptor activity: agonists

## COc1ccc2[nH]cc(CCN)c2c1 [5-OMe-tryptamine]
[1]
  serotonin receptor activity: agonists

B1: 2B9: engineered PfTrpB variant 2B9, SEQ ID NO:3 (protein, listed as Pyrococcus furiosus)
chain: MWFGEFGGQYVPETLVGPLKELEKAYKRFKDDEEFNRQLNYYLKTWAGRPTPLYYAKRLTEKIGGAKVYLKREDLVHGGAHKTNNAIGQALLAKLMGKTRLIAETGAGQHGVATAMAGALLGMKVDIYMGAEDVERQKMNVFRMKLLGANVIPVNSGSRTLKDAINEALRDWVATFEYTHYLIGSVVGPHPYPTIVRDFQSVIGREAKAQILEAEGQLPDVIVACVGGGSNAMGIFYPFVNDKKVKLVGVEAGGKGLESGKHSASLNAGQVGVSHGMLSYFLQDEEGQIKPSHSIAPGLDYPGVGPEHAYLKKIQRAEYVAVTDEEALKAFHELSRTEGIIPALESAHAVAYAMKLAKEMSRDEIIIVNLSGRGDKDLDIVLKASGNVLEHHHHHH
[2]; 75° C.
  activity with a variety of substrate analogs: high activity
[2]; lower temperatures than 75° C.
  activity at lower temperatures: activity decreases

B2: H275E (protein, listed as Pyrococcus furiosus)
chain: B1 chain with H275E
[3]
  activity and promiscuity of PfTrpB variant in SUMS: generally activated
[3]; 75° C.
  activity of PfTrpB mutant: activating
